Test results as given in patent US20230338553A1 (published 2023).

B1: scFv(h-AM1)-BAP (scFv)
scFv: DAAQPARRARRTKLGTELGSEVQLLESGGGLVQPGGSLRLSCVASGFTFSSYTMSWVRQAPGKGLEWVSYIHNGGGHTYYADSVKGRFTISRDNSKNTLYLQMNSLRAEDTAVYYCTRRMYYGNSHWYFDVWGAGTRVTITSAKTTPPSVYGGGGSGGGGSGGGGSTNSDIQMTQSPSSLSASVGDRVTITCRTSQSISNYLNWYQQKPGKAPKLLIYYTLKLNSGVPSRFSGSGSGTDFTLTISSLQPEDFATYYCQQSKTLPWTFGGGTKLEIKRADAAPTVSGPEQKLISEEDLNSAVDMSGLNDIFEAQKIEWHEGAPSSHHHHHH
modifications: mono-biotinylated at the C-terminal BAP (Bio-Tag)
B2: scFv(AM1)-P-BAP (scFv)
scFv: DAAQPARRARRTKLGTELGSQVKLQESGGGLVQPGGSLKLSCVASGFTFSSYTMSWVRRTPEKRLEWVAYIHNGGGHTYYPDTIKGRFTISRDNAKNTLFLEMSSLKSEDTAMYYCTRRMYYGNSHWYFDVWGAGTSVTVSSAKTTPPSVYGGGGSGGGGSGGGGSTNSDIVMTQSPSSLSASLGDRVTINCRTSQDISNYLNWYQLTPDGTVKLLIYYTLKLNSGVPSRFSGSGSGTDYSLTINNLEKEDFATYFCQQSKTLPWTFGGGTKLEIKRADAAPTVSGPKLSSKLKVTVNGTAYDVDVDVDKSHENPMGTILFGGGTGGAPAPAAGGAGAGKAGEGEIPAPLAGTVSKILVKEGDTVKAGQTVLVLEAMKMETEINAPTDGKVEKVLVKERDAVQGGQGLIKIGDLELIEGSSGPEQKLISEEDLNSAVDHHHHHH
modifications: mono-biotinylated at the C-terminal P-BAP (PSTCD biotin acceptor domain) when produced in 293T-huBirA cells

Biological target: Prostate Stem Cell Antigen (PSCA) (human, UniProt O43653 12-83)
Test: flow cytometry (293T-PSCA cells)

Prostate Stem Cell Antigen (PSCA), sequence (O43653 12-83): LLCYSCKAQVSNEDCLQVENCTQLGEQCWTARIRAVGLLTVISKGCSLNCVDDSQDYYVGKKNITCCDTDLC

Row | Binder | Kd [µM]
1 | B1 | 0.744
2 | B2 | 16.6
